For one assay, the system named is human brain capillaries. The assay is described as follows: Accumulation/uptake of [125I]-p97 in isolated human brain capillaries. In kind it is binding. Particulars: for Inhibition of [125I]-p97 binding/accumulation in human brain capillaries: competitor 5 micromolar, 100 nM p97, 1 h at 37° C. (FIG. 5). Here is the method: FIG. 5. Accumulation of p97 in human brain capillaries. Accumulation of [^125I]-p97 was measured at 37° C. for 1 h in isolated human brain capillaries (100 μg/assay). The incubation medium contained [^125I]-p97 and a final concentration of 100 nM p97 in Ringer/Hepes solution. The accumulation of [^125I]-p97 was performed in the presence or absence of 5 μm cold-p97, holo-transferrin or lactoferrin. […] The suspension was filtered under vacuum through a […] pore size Millipore filter. The filter was rinsed with 8 ml of stop solution, and the radioactivity was counted. Nonspecific binding of the radioactivity to the capillaries was determined by the addition of the ice-cold stop solution to the capillaries before adding the incubation medium. This value was subtracted from accumulation values obtained following an 1 h incubation. The results were expressed as ng of [^125I]-p97 accumulated per μg of brain capillaries.
FIG. 16 illustrates the identification of a p97 receptor according to ligand specificity. FIG. 16a, Uptake of [^125I]-p97 into human brain capillaries. The uptake of [^125I]-p97 at 100 nM (control) into isolated human brain capillaries was measured for 1 h at 37° C. in the presence of a 50-fold molar excess of unlabelled p97, human holo-transferrin or human lactoferrin. (*[…] Student's t-test (n=5); FIG. 16b, Effect of RAP on [^125I]-p97 transcytosis across BBCEC monolayers. Apical-to-basal transport of [^125I]-p97 was measured in the presence (closed circles) or absence (open circles) of RAP (25 μg/ml) (n=5); FIG. 16c, Inhibition of bovine [^125I]-lactoferrin transport by p97. Transcytosis of bovine [^125I]-lactoferrin (50 nM) was measured in the presence (closed circles) or absence (open circles) of unlabelled p97 (5 μM) at 37° C. (n=3).
A. Isolation of human brain capillaries. […]
B. p97 accumulation in human brain capillaries. […] Accumulation of [^125I]-p97 was measured at 37° C. for 1 h in isolated human brain capillaries (100 μg/assay). […]

Assay [1] relates to bovine brain capillary endothelial cell monolayers. The assay is described as follows: Competition of [125I]-p97 binding on bovine brain capillary endothelial cell monolayers. The conditions noted are these: [125I]-p97 25 nM, 2 h at 4° C., competitor 7.5 micromolar (FIG. 3). As for the experimental part:
FIG. 3. Binding of p97 on bovine brain capillary endothelial cell monolayers. Binding p97 was performed with BBCECs that were pre-incubated 2 hrs in Ringer-Hepes to avoid any interference from the astrocytes. For the binding experiments, cells were incubated for 2 h at 4° C. in Ringer/Hepes in the presence of [^125I]-p97 (25 nM) and 7.5 micromolar concentrations of cold-p97, transferrin or lactoferrin, respectively. At the end of the incubation, the filters were gently washed at 4° C. three times with 4 ml of cold-PBS. Then the associated radioactivity of endothelial cells was determined by removing the membrane of the culture insert and counting it in a gamma counter.
B. Binding studies of p97. Binding of p97 was performed with BBCECs and Rat Brain Endothelial Cells that were pre-incubated 2 hrs in Ringer/Hepes to avoid any interference from the astrocytes.
For the binding experiments, cells were incubated for 2 h at 4° C. in Ringer/Hepes in the presence of [^125I]-p97 (25 nM) and increasing concentrations of cold-p97 or high (7.5 micromolar) concentrations of transferrin or lactoferrin. At the end of the incubation, the filters were gently washed at 4° C. three times with 4 ml of cold-PBS. Then the associated radioactivity of endothelial cells was determined by removing the membrane of the culture insert and counting it in a gamma counter.

B1: lactoferrin: lactoferrin (Lf), LRP ligand used as competitor (protein, UniProt P02788 20-710, looked up)
Lactotransferrin: GRRRSVQWCAVSQPEATKCFQWQRNMRKVRGPPVSCIKRDSPIQCIQAIAENRADAVTLDGGFIYEAGLAPYKLRPVAAEVYGTERQPRTHYYAVAVVKKGGSFQLNELQGLKSCHTGLRRTAGWNVPIGTLRPFLNWTGPPEPIEAAVARFFSASCVPGADKGQFPNLCRLCAGTGENKCAFSSQEPYFSYSGAFKCLRDGAGDVAFIRESTVFEDLSDEAERDEYELLCPDNTRKPVDKFKDCHLARVPSHAVVARSVNGKEDAIWNLLRQAQEKFGKDKSPKFQLFGSPSGQKDLLFKDSAIGFSRVPPRIDSGLYLGSGYFTAIQNLRKSEEEVAARRARVVWCAVGEQELRKCNQWSGLSEGSVTCSSASTTEDCIALVLKGEADAMSLDGGYVYTAGKCGLVPVLAENYKSQQSSDPDPNCVDRPVEGYLAVAVVRRSDTSLTWNSVKGKKSCHTAVDRTAGWNIPMGLLFNQTGSCKFDEYFSQSCAPGSDPRSNLCALCIGDEQGENKCVPNSNERYYGYTGAFRCLAENAGDVAFVKDVTVLQNTDGNNNEAWAKDLKLADFALLCLDGKRKPVTEARSCHLAMAPNHAVVSRMDKVERLKQVLLHQQAKFGRNGSDCPDKFCLFQSETKNLLFNDNTECLARLHGKTTYEKYLGPQYVAGITNLKKCSTSPLLEACEFLRK
Turning to B1, in the assay with human brain capillaries, the “Inhibition of [125I]-p97 binding/accumulation in human brain capillaries” value is “significantly inhibits”. Further, the “Competition with p97 for receptor binding in human brain capillaries, repeat experiment” value in the assay with human brain capillaries (performed identically to FIG. 5 (FIG. 6)) is “competes”. In assay [1], the “Inhibition of [125I]-p97 binding to BBCECs” value is “competitively inhibited”.

B2: p97: recombinant human melanotransferrin (p97), provided by Synapse Technologies (protein, UniProt P08582 20-709, looked up)
Melanotransferrin: GMEVRWCATSDPEQHKCGNMSEAFREAGIQPSLLCVRGTSADHCVQLIAAQEADAITLDGGAIYEAGKEHGLKPVVGEVYDQEVGTSYYAVAVVRRSSHVTIDTLKGVKSCHTGINRTVGWNVPVGYLVESGRLSVMGCDVLKAVSDYFGGSCVPGAGETSYSESLCRLCRGDSSGEGVCDKSPLERYYDYSGAFRCLAEGAGDVAFVKHSTVLENTDGKTLPSWGQALLSQDFELLCRDGSRADVTEWRQCHLARVPAHAVVVRADTDGGLIFRLLNEGQRLFSHEGSSFQMFSSEAYGQKDLLFKDSTSELVPIATQTYEAWLGHEYLHAMKGLLCDPNRLPPYLRWCVLSTPEIQKCGDMAVAFRRQRLKPEIQCVSAKSPQHCMERIQAEQVDAVTLSGEDIYTAGKTYGLVPAAGEHYAPEDSSNSYYVVAVVRRDSSHAFTLDELRGKRSCHAGFGSPAGWDVPVGALIQRGFIRPKDCDVLTAVSEFFNASCVPVNNPKNYPSSLCALCVGDEQGRNKCVGNSQERYYGYRGAFRCLVENAGDVAFVRHTTVFDNTNGHNSEPWAAELRSEDYELLCPNGARAEVSQFAACNLAQIPPHAVMVRPDTNIFTVYGLLDKAQDLFGDDHNKNGFKMFDSSNYHGQDLLFKDATVRAVPVGEKTTYRGWLGLDYVAALEGMSSQQC
B2: in the assay with human brain capillaries, the “Inhibition of [125I]-p97 binding/accumulation in human brain capillaries” value is on record as “significantly inhibits”. Besides, in assay [1], the “Inhibition of [125I]-p97 binding to BBCECs” value was “competitively inhibited”.

(Values after patent publication US7977317B2, “Compositions and methods for modulating blood-brain barrier transport” (Raptor Pharmaceutical Inc., priority 2001, dated 2011).)
